{
  "source": "patent US20250347697A1",
  "about": "“Accurate Method for Generating a Phase Diagram of a Polymer” (MAX-PLANCK-GESELLSCHAFT ZUR FÖRDERUNG DER WISSENSCHAFTEN …, priority 2022, published 2025)",
  "molecules": {"B1": {"name": "PGL-3: protein component of P granules in the germline of C. elegans; spiked with 5% PGL-3::GFP (protein, UniProt G5EBV6 1-693, looked up)", "Guanyl-specific ribonuclease …": "MEANKRQIVEVDGIKSYFFPHLAHYLASNDELLVNNIAQANKLAAFVLGATDKRPSNEEIAEMILPNDSSAYVLAAGMDVCLILGDDFRPKFDSGAEKLSQLGQAHDLAPIIDDEKKISMLARKTKLKKSNDAKILQVLLKVLGAEEAEEKFVELSELSSALDLDFDVYVLAKLLGFASEELQEEIEIIRDNVTDAFEACKPLLKKLMIEGPKIDSVDPFTQLLLTPQEESIEKAVSHIVARFEEASAVEDDESLVLKSQLGYQLIFLVVRSLADGKRDASRTIQSLMPSSVRAEVFPGLQRSVFKSAVFLASHIIQVFLGSMKSFEDWAFVGLAEDLESTWRRRAIAELLKKFRISVLEQCFSQPIPLLPQSELNNETVIENVNNALQFALWITEFYGSESEKKSLNQLQFLSPKSKNLLVDSFKKFAQGLDSKDHVNRIIESLEKSSSSEPSATAKQTTTSNGPTTVSTAAQVVTVEKMPFSRQTIPCEGTDLANVLNSAKIIGESVTVAAHDVIPEKLNAEKNDNTPSTASPVQFSSDGWDSPTKSVALPPKISTLEEEQEEDTTITKVSPQPQERTGTAWGSGDATPVPLATPVNEYKVSGFGAAPVASGFGQFASSNGTSGRGSYGGGRGGDRGGRGAYGGDRGRGGSGDGSRGYRGGDRGGRGSYGEGSRGYQGGRAGFFGGSRGGS", "modifications": "spiked with 5% PGL-3::GFP", "notes": "protein component of P granules in the germline of C. elegans; spiked with 5% PGL-3::GFP"}, "B2": {"name": "poly(A) RNA: Poly(A) RNA (SEQ ID No: 3) added to FUS-GFP at a fixed molar ratio (nucleic acid)", "chain": "AAAAAAAAAAAAAAAAAAAAAAAAAAAAAAAAAAAAAAAAAAAAAAAAAAAAAAAAAAAAAAAAAAAAAAAAAAAAAAAAAAAAAAAAAAAAAAAAAAAAAAAAAAAAAAAAAAAAAAAAAAAAAAAAAAAAAAAAAAAAAAAAAAAAAAAAAAAAAAAAAAAAAAAAAAAAAAAAAAAAAAAAAAAAAAAAAAAAAAAAAAAAAAAAAAAAAAAAAAAAAAAAAAAAAAAAAAAAAAAAAAAAAAAAAA", "modifications": "misc_feature 1..250 Poly(A) RNA"}},
  "assay_type_in_all_cases": "physicochemical",
  "key": {"FUS": {"biological_target": "T1, FUS (Homo sapiens, UniProt P35637)", "T1 construct": "made in house; host or cells: SF9-ESF insect cells (baculovirus) for the unlabelled FUS", "T1 sequence (P35637 1-526)": "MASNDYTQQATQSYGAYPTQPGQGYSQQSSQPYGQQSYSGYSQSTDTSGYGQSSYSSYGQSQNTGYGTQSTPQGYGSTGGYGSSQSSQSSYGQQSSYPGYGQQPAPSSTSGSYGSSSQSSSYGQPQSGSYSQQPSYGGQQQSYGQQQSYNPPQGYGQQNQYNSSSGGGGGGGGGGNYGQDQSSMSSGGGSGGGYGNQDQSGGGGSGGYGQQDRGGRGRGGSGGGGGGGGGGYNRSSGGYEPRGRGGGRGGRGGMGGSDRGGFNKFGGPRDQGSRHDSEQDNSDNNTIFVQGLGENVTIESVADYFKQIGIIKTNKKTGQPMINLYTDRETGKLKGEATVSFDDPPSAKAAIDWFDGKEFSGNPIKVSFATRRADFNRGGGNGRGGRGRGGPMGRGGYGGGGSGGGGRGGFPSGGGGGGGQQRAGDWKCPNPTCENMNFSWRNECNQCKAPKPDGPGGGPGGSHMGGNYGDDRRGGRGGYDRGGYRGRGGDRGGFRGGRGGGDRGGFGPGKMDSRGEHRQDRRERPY", "assay": "Effect of a small molecule drug on the phase diagram (binodal) of FUS, inPhase method", "details": "compared to untreated control (DMSO); temperature phase diagram, FIG. 9", "excerpt": "• 1. Measure the protein concentration of the stock solutions. The stock solutions can be unlabelled, a mix of labelled and unlabelled or fully labelled protein. Solutions containing only unlabelled protein will be detected using brightfield (or phase-contrast, DIC, etc.) while the mixes that contain labelled protein can be also detected with fluorescence means. • 2. Make a titration series of the protein solution. • 3. Trigger phase separation of the protein samples. Phase separation can be triggered for example by a change in salt, pH or temperature. • 4. Immediately after triggering phase separation, encapsulate in a water-in-oil system (e.g. PicoSurf oil (Sphere Fluidics, UK)). • 5. Centrifugation after encapsulation is optional but helps in the segmentation of the condensates. This is because the centrifugation coarsens the condensates. • 6. Load the titration series into chambers for microscopy imaging. […] Now the ratio condensate over emulsion droplet volume which is the volume fraction can be determined. In case of fluorescently labelled proteins the determination of the condensate volume can be complemented by fluorescence microscopy. • 8. Perform the image and segmentation analysis and fit the measured volume-fractions to a linear regression over the protein concentrations. • 9. […]"}, "[1]": {"assay": "Partition factor derived from inPhase phase diagrams (water-in-oil emulsions)", "details": "range over the tested temperatures and salt (KCl) concentrations, FIG. 15a", "excerpt": "Partition factor and comparison to fluorescence-based quantification. The partition factor (PF) is often used in condensate research to characterise the up-concentration of protein in the condensed phase. It can be defined by the ratio of the condensed-over dilute-phase concentration (PF=ccon/cdil). In the condensate field it is common to determine the partition factor by comparing fluorescence intensity inside the condensate against the intensity in the dilute phase. In contrast, our method allows us to directly determine the partition factor by using the presented phase diagrams (FIG. 13 and FIG. 14).\n• 1. Measure the protein concentration of the stock solutions. The stock solutions can be unlabelled, a mix of labelled and unlabelled or fully labelled protein. Solutions containing only unlabelled protein will be detected using brightfield (or phase-contrast, DIC, etc.) while the mixes that contain labelled protein can be also detected with fluorescence means. • 2. […] Now the ratio condensate over emulsion droplet volume which is the volume fraction can be determined. In case of fluorescently labelled proteins the determination of the condensate volume can be complemented by fluorescence microscopy. • 8. Perform the image and segmentation analysis and fit the measured volume-fractions to a linear regression over the protein concentrations. • 9. […]"}, "FUS-GFP": {"biological_target": "T2, FUS-GFP (Homo sapiens, UniProt P35637)", "T2 construct": "made in house; the listing says 'purified from BAC construct')", "assay": "Effect of RNA on protein phase separation (poly(A) RNA : FUS-GFP at fixed molar ratio)", "details": "titration of total protein concentration at constant poly(A) RNA to protein ratio, FIG. 16", "method": "FUS-GFP containing samples were prepared as described in Example 1. Phase separation was triggered by simultaneously lowering the salt concentration of the sample and adding the Poly(A) RNA in an amount to maintain a fixed molar ratio of Poly(A):FUS-GFP. The volume fraction of the condensed phase was determined as described in Example 1 and cdil and ccon, were determined, wherein ccon represents an apparent concentration containing both Poly(A) (SEQ ID No: 3) and FUS-GFP concentration. The concentration of the single components of the sample can be resolved by the knowledge of the molar ratio of RNA to protein in the condensed phase (FIG. 16)."}},
  "data": [
    {"molecule": "NC(=O)CCCCC1CCSS1", "note": "(stereo not drawn) [Lipoamide]", "values": [
      {"measurement": "effect on the phase behavior of FUS (condensed phase branch of the binodal)", "setting": "FUS", "result": "reduced amount of conformational changes at higher temperatures"}
    ]},
    {"molecule": "B1", "values": [
      {"measurement": "partition factor (PF=ccon/cdil)", "setting": "[1]", "result": "10^1-10^3"}
    ]},
    {"molecule": "B2", "values": [
      {"measurement": "effect of increasing the RNA to protein ratio on cdil", "setting": "FUS-GFP", "result": "reduces cdil"}
    ]}
  ]
}
